# B1: recombinant wt Irga6 (bacterially expressed, from pGEX-4T-2-Irga6) (natural protein)
# chain: MGQLFSSPKSDENNDLPSSFTGYFKKFNTGRKIISQEILNLIELRMRKGNIQLTNSAISDALKEIDSSVLNVAVTGETGSGKSSFINTLRGIGNEEEGAAKTGVVEVTMERHPYKHPNIPNVVFWDLPGIGSTNFPPNTYLEKMKFYEYDFFIIISATRFKKNDIDIAKAISMMKKEFYFVRTKVDSDITNEADGKPQTFDKEKVLQDIRLNCVNTFRENGIAEPPIFLLSNKNVCHYDFPVLMDKLISDLPIYKRHNFMVSLPNITDSVIEKKRQFLKQRIWLEGFAADLVNIIPSLTFLLDSDLETLKKSMKFYRTVFGVDETSLQRLARDWEIEVDQVEAMIKSPAVFKPTDEETIQERLSRYIQEFCLANGYLLPKNSFLKEIFYLKYYFLDMVTEDAKTLLKEICLRN
# notes: Irga6, mouse immunity-related GTPase (IRG) protein; Expressed as N-terminal GST fusion; also called recombinant Irga6
# Target: the molecule itself
# Assay: light scattering; GTP-dependent oligomerisation of recombinant Irga6 monitored by conventional light scattering, as described earlier (ref. 16)
protein,measurement,value
B1,binding result,binds

# — publication PMC3006384, “Phosphorylation of Mouse Immunity-Related GTPase (IRG) Resistance Proteins Is an Evasion Strategy for Virulent Toxoplasma gondii” (PLoS Biology, 2010)
